This note sets out measurements from publication PMC4954732.

Series [1] deals with T1, SrbA bHLHZ (Aspergillus fumigatus) (UniProt Q4WIN1).
T1 sequence: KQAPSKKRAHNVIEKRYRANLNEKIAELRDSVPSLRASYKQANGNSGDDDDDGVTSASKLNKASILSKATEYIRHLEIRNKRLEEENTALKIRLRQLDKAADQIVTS
Put plainly: SPR. To be noted: SPR on immobilised biotinylated duplexes, 1:1 model with mass transport; buffer, salt, pH and temperature not stated (protocols of refs 19, 54).

For series [2], the system named is CBC (HapB/HapC/HapE) (Aspergillus fumigatus). Put plainly: SPR. To be noted: SPR on immobilised biotinylated duplexes, 1:1 model with mass transport; buffer, salt, pH and temperature not stated (protocols of refs 19, 54).

The Kd is the equilibrium constant for the complex coming apart. “AGAATCACGCGGTCCG (double strand) [SRE1 (cyp51Ap-320-16)]”: the Kd in series [1] turned out to be 0.0228 µM.
The same measure, in the same setting: next, “CGGCTCAGCACACATC (double strand) [SRE2 (cyp51Ap-295-16)]”: 0.273 µM.
Turning to “GCTGAGCCGAATGAAAGTTGCCTAATTACTAAGGTGT (double strand) [cyp51A-293]”, the Kd in series [2] worked out at 0.0744 µM.
With “GCTGAGCCGAATGAATCACGCGGTCCGGATGTGTGCT (double strand) [cyp51A-TR34]”, the fold decrease in affinity (fold lower affinity than cyp51A-293) in series [2] is 8.
